Measured values from patent US20230183352A1 (published 2023).

Key:
[1] = molecular target: T1, Claudin 18.2 (CLDN18.2), expressed on CHOS-CLDN 18.2 / HEK293-CLDN 18.2 / HCC827-CLDN 18.2 cells (human, UniProt P56856-2 1-261); assay: FACS, CHOS-CLDN18.2 cells
T1 construct: whole, on cells; The species is not repeated for the CHOS-CLDN 18.2 cells; also called claudin-18A2
Procedure: (§1) The initial concentration of the antibody was 20 μg/ml, it was diluted at 1:4, and incubated at 4° C. for 60 min.

[2] = molecular target: T1, Claudin 18.2 (CLDN18.2), expressed on …; assay: FACS, CHOS-CLDN18.2 cells, 20 µg/ml
Procedure: as §1

[3] = molecular target: T1, Claudin 18.2 (CLDN18.2), expressed on …; assay: FACS, CHOS-CLDN18.2 cells, 20 µg/ml; remark: listed apart in the source
Procedure: as §1

[4] = molecular target: T1, Claudin 18.2 (CLDN18.2), expressed on …; assay: FACS, CHOS-CLDN18.2 cells, 10 µg/ml
Procedure: The initial concentration of the antibody was 20 μg/mkit was diluted at 1:4, and incubated at 4° C. for 60 min.

[5] = molecular target: T1, Claudin 18.2 (CLDN18.2), expressed on …; assay: FACS, CHOS-CLDN18.2 cells, 0.078 µg/ml
Procedure: as §1

[6] = molecular target: T1, Claudin 18.2 (CLDN18.2), expressed on …; assay: FACS, CHOS-CLDN18.2 cells, 1.250 µg/ml
Procedure: as §1

[7] = molecular target: T1, Claudin 18.2 (CLDN18.2), expressed on …; assay: FACS, CHOS-CLDN18.2 cells, 0.005 µg/ml
Procedure: as §1

[8] = molecular target: T1, Claudin 18.2 (CLDN18.2), expressed on …; assay: FACS, CHOS-CLDN18.2 cells, 0.020 µg/ml
Procedure: as §1

[9] = molecular target: T1, Claudin 18.2 (CLDN18.2), expressed on …; assay: FACS, CHOS-CLDN18.2 cells, 0.078 µg/ml; remark: listed apart in the source
Procedure: as §1

[10] = molecular target: T1, Claudin 18.2 (CLDN18.2), expressed on …; assay: FACS, CHOS-CLDN18.2 cells, 0.005 µg/ml; remark: listed apart in the source
Procedure: as §1

[11] = molecular target: T1, Claudin 18.2 (CLDN18.2), expressed on …; assay: FACS, CHOS-CLDN18.2 cells, 0.020 µg/ml; remark: listed apart in the source
Procedure: as §1

[12] = molecular target: T1, Claudin 18.2 (CLDN18.2), expressed on …; assay: FACS, CHOS-CLDN18.2 cells, 0.078 µg/ml; remark: listed apart in the source
Procedure: as §1

[13] = molecular target: T1, Claudin 18.2 (CLDN18.2), expressed on …; assay: FACS, CHOS-CLDN18.2 cells, 0.005 µg/ml; remark: listed apart in the source
Procedure: as §1

[14] = molecular target: T1, Claudin 18.2 (CLDN18.2), expressed on …; assay: FACS, CHOS-CLDN18.2 cells, 0.020 µg/ml; remark: listed apart in the source
Procedure: as §1

[15] = molecular target: T1, Claudin 18.2 (CLDN18.2), expressed on …; assay: FACS, CHOS-CLDN18.2 cells, 0.005 µg/ml; remark: listed apart in the source
Procedure: as §1

[16] = molecular target: T1, Claudin 18.2 (CLDN18.2), expressed on …; assay: FACS, CHOS-CLDN18.2 cells, 0.020 µg/ml; remark: listed apart in the source
Procedure: as §1

[17] = molecular target: T1, Claudin 18.2 (CLDN18.2), expressed on …; assay: FACS, CHOS-CLDN18.2 cells, 0.078 µg/ml; remark: listed apart in the source
Procedure: as §1

[18] = molecular target: T1, Claudin 18.2 (CLDN18.2), expressed on …; assay: FACS, CHOS-CLDN18.2 cells, 0 µg/ml (background)
Procedure: as §1

B1: QP024025 (antibody, human IgG1, V domains shown)
VH: QVQLQQPGAELVRPGASVKLSCKASGYTFTSYWINWVKQRPGQGLEWIGNIYPSDSYTNYNQKFKDKATLTVDKSSSTAYMQLSSPTSEDSAVYYCTRSWRGNSFDYWGQGTTLTVSS
VL: DIVMTQSPSSLTVTAGEKVTMSCKSSQSLLNSGNQKNYLTWYQQKPGQPPKLLIYWASTRESGVPDRFTGSGSGTDFTLTISSVQAEDLAVYYCQNDYSYPFTFGSGTKLEIK
notes: also called IMAB362; 175D10(IMAB362)
Binder B1 has an EC50 [1] of 0.27 µg/mL, a max [1] of 88600 and an FACS reading [2] of 72300. For the same binder, the FACS reading [3] was 72300, the MFI [4] was 145000 and the FACS reading [5] was 18200. For the same binder, the FACS reading [6] was 63700, the FACS reading [7] was 2830 and the FACS reading [8] was 6950. For the same binder, the FACS reading [9] was 18200, the FACS reading [10] was 2830 and the FACS reading [11] was 6950. For the same binder, the FACS reading [12] was 18200, the FACS reading [13] was 2830 and the FACS reading [14] was 6950. It also gave an FACS reading [15] of 2830, an FACS reading [16] of 6950 and an FACS reading [17] of 18200. It also gave an FACS reading [18] of 732.
